Data reported in PMC4974474.
Blank lines part the entries; values can stand above or below the substance they belong to.

How the values were obtained:
POC1 = test: SAXS; each POC alone, 50 μM; oligomeric state from the total scattering
POC1+POC2+POC3 assembly = test: SAXS; POC1+POC2+POC3 (1:1:1) at 50 μM; beamline B21, Diamond Light Source
POC2 = test: SAXS; each POC alone, 50 μM; oligomeric state from the total scattering
POC3 = test: as above

stoichiometry N (POC1): 2
Substance: POC1

stoichiometry N (POC1+POC2+POC3 assembly): 2
Substance: POC1+POC2+POC3 assembly (complex)

stoichiometry N (POC2): 3
Substance: POC2

stoichiometry N (POC3): 3
Substance: POC3
